The test has as its target T1, Thrombospondin-1 (Abnova) (UniProt P07996 19-1170).
T1 construct: Thrombospondin-1 bought from Abnova; No catalogue number is printed; the product may be a partial or tagged recombinant protein; also called TSP-1; free TSP-1; source: bought: Abnova
Description: SPR; Biacore 3000; AMEL-2 immobilised on a CM5 chip by amine coupling (10,000 RU); running buffer 10 mM Na2HPO4, 150 mM NaCl, pH 7.4; analytes injected at 10 μl/min for 3 min, dissociation 600 s, no regeneration; 1:1 Langmuir model. Conditions: both partners purified.

T1 sequence (P07996 19-1170): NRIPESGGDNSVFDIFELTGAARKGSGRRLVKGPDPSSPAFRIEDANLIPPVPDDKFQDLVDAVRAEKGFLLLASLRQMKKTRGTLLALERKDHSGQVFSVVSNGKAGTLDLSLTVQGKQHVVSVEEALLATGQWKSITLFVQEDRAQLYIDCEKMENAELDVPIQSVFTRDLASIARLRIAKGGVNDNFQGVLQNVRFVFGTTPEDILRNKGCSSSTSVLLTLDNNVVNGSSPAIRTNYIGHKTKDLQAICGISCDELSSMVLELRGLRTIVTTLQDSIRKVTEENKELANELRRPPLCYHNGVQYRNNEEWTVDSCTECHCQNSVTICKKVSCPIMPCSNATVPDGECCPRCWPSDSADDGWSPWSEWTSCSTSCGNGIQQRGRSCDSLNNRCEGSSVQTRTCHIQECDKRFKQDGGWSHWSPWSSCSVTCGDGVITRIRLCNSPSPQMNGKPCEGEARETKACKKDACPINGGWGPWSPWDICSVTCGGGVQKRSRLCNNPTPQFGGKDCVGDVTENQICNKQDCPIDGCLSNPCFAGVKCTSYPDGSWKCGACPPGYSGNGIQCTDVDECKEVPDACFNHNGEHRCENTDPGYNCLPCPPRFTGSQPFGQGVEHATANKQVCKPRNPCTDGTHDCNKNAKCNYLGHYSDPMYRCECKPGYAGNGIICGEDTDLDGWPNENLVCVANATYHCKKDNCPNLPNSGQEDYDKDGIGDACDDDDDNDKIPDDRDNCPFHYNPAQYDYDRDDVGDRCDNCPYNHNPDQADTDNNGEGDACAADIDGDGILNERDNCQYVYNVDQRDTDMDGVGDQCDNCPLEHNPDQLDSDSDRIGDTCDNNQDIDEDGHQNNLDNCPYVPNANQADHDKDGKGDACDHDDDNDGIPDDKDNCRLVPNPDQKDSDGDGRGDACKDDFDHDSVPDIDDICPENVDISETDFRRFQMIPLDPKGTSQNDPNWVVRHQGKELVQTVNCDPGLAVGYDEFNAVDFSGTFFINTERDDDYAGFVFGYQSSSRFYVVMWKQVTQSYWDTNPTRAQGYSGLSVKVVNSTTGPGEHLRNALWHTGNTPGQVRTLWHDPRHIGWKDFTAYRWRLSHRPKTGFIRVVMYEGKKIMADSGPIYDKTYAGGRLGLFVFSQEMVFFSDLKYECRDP

B1: human amelogenin isoform 2 (AMELX isoform II), recombinant (natural protein)
chain: MGTWILFACLLGAAFAMPVLTPLKWYQSIRPPYPSYGYEPMGGWLHHQIIPVLSQQHPPTHTLQPHHHIPVVPAQQPVIPQQPMMPVPGQHSMTPIQHHQPNLPPPAQQPYQPQPVQPQPHQPMQPQPPVHPMQPLPPQPPLPPMFPMQPLPPMLPDLTLEAWPSTDKTKREEVD
B1 registered an equilibrium dissociation constant (Kd) of 878 ± 125 nM.

Values taken from paper PMC5635807, “Identification of Trombospondin-1 as a Novel Amelogenin Interactor by Functional Proteomics” (Frontiers in Chemistry, 2017).
